What was measured:
cynomolgus CD47 [1] = assay: SPR; assay 2
human CD47 [2] = molecular target: human CD47 (UniProt Q08722); assay: SPR; assay 2
cynomolgus CD47 [3] = assay: SPR; average
human CD47 [4] = molecular target: human CD47 (UniProt Q08722); assay: SPR; average
cynomolgus CD47 [5] = assay: SPR; assay 1
human CD47 [6] = molecular target: human CD47 (UniProt Q08722); assay: SPR; assay 1

human CD47, sequence (Q08722 19-142): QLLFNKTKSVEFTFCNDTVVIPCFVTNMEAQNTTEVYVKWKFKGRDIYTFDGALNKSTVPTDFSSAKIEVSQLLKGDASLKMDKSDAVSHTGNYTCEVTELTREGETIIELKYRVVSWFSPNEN
cynomolgus CD47, sequence (Q08722 other isoform, or with tags, fused parts or gaps): as the sequence (Q08722 19-142) above, with V59A, T61A, D62N counted along it

- Kd (cynomolgus CD47 [1]): 7.24 pM
- Kd (human CD47 [2]): 2.02 pM
- Kd (cynomolgus CD47 [3]): 10 pM
- Kd (human CD47 [4]): 8 pM
- Kd (cynomolgus CD47 [5]): 12.1 pM
- Kd (human CD47 [6]): 14.3 pM
Substance: Hu5F9-G4
